Data from article PMC11833123, “A bipartite bacterial virulence factor targets the complement system and neutrophil activation” (The EMBO Journal, 2025).

T1: GST-CXCR1 (recombinant, from E. coli) (UniProt P25024 1-350)
T1 construct: CXCR1 (Uniport entry P25024), full length, gene codon optimized and synthesized, cloned into pGEX-6P-1; also called CXCR1 from E.coli; recombinant GST-CXCR1; source: E. coli BL21, purified (Glutathione Agarose with 5% sarkosyl in the lysis buffer, SEC); not shown: GST, N-terminal, kept
T1 sequence: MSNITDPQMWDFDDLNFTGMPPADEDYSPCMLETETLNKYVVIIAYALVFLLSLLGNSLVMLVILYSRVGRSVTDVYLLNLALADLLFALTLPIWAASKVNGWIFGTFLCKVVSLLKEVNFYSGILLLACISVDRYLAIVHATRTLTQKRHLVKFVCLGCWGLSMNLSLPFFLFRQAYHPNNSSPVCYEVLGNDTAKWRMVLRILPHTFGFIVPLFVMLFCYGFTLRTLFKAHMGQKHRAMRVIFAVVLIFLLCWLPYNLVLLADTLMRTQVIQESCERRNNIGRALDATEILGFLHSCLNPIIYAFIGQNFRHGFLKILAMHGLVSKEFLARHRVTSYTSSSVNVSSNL


Legend:
[1] = biological target: C0362, C-terminal part of TDE0362 with the Mac-like domain (205–647 aa) (Treponema denticola ATCC 35405) (UniProt Q73QT1); experiment: SEC; dimer fraction noted during SEC of purified C0362; column and buffer are not tied to this remark
[2] = biological target: T1, GST-CXCR1 (recombinant, from E. coli); experiment: SPR; GST-CXCR1 coupled (EDC/NHS) to CM5 sensor chips, N0362 flowed over (0.05 or 0.1 µM to 3 µM), 25 °C, dPBS with 0.01% Tween 20, Reichert SR7500DC; kinetics globally fit to a one to two binding model, affinity model for saturation; conditions: both partners purified

| Molecule | fraction of the total material that was dimer [1] | Kd [2] | koff [2] | kon [2] |
| --- | --- | --- | --- | --- |
| C0362, C-terminal part of TDE0362 with the Mac-like domain (205–647 aa) (from UniProt Q73QT1 205-647) (enzyme) | 10% |  |  |  |
| N0362, the N-terminus of TDE0362 (23–204 aa) (domain or fragment, Alexa Fluor 488 label (only in the immunofluorescence on cells), TDE0362 of Treponema denticola ATCC 35405 (647 aa pre-protein), residues 23-204 with both bacterial Ig-like domains Big_1 and Big_2; Cloned in pET100/D-TOPO, which encodes the N-terminal 6xHis-tag; The same construct was used unlabelled (pull-down, ELISA, SPR) and labelled with Alexa Fluor 488 (cells); also called recombinant N0362; His-tagged N0362; source: E. coli BL21-CodonPlus (DE3)-RIL, …) KNNLLTKTEKEKSGEIPVKNIILSPNKSEFSLEKNTAQTITVKIIPEKATNKALIYSSKHGDIASIDNTGLITAKKEGRTIITIEASNGVKKTIDVIVTPEPIPVTNIEFEEEPPAFLFIGDVYIFKAKAKPDEATNRKLEYTTMTSDVISVTNTELGTMKATKEGNAAITIRSASTPSVAK |  | 264 ± 2.3 nM | 0.000857 s⁻¹ | 4950 M⁻¹ s⁻¹ |
